± gives the standard deviation of the averaged measurements.
System: ATP
Experiment: switch fluorescence ratio, 500 uM ATP over buffer (Cy3 cluster intensity, sum of 5 cycles each) (fold (ratio)); higher = stronger signal-on switching upon ATP binding; sequences stand for … in TCGTCGGCAGCGTCAGATGTGTATAAGAGACAGTTTTTTTTTTTTTTTTTTTTTTTTT…TC
Conditions: aptamer strand: ATP DNA aptamer (quencher-CACCTGGGGGAGTATTGCGGAGGAAGG + anchor), 100 nM annealed; ATP concentration: 500 uM
Method in brief: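 Cy3-labelled switching-strand clusters on a modified Illumina MiSeq flow-cell were annealed to 100 nM quencher-labelled ATP aptamer, imaged in selection buffer, then imaged after 15 min with 500 uM ATP at 22 °C. Five buffer/ATP cycles ran, with NaOH stripping and re-annealing between them. The fluorescence ratio is summed target-cycle over summed buffer-cycle Cy3 intensity per cluster, averaged per switch-domain sequence. Clusters outside 100-1000 RFU were excluded.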
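Note: ATP exposure 15 min at 22 °C before imaging.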

Sequence | switch fluorescence ratio
TCGGGGCGG | 0.992 ± 0.011
TCTATTGCTG | 0.995 ± 0.02
ATTAATCGAC | 1.03 ± 0.092
AAGGGGGGAC | 1.04 ± 0.07
CGTACCAGGG | 1.32 ± 0.036
TGAAATTGTT | 1 ± 0.045
TGAGGATGGA | 0.975 ± 0.044
ATTTGTGGGA | 1 ± 0.029
GGGCAGAAAT | 1.01 ± 0.048
GGTGTAGGCA | 0.987 ± 0.03
GGTTTCGCGC | 1.01 ± 0.013
AGGGACGAAT | 1.25 ± 0.092
TTGATTAGAT | 1.014 ± 0.0016
TAGCAATGGC | 2.42 ± 0.14
TCAAAATTTC | 1.01 ± 0.0072
GGATGTAAGT | 0.97 ± 0.017
TTGCGGTGCG | 1.01 ± 0.062
CCAGGTGTCT | 2.16 ± 0.26
TTGCTCCTTT | 1.02 ± 0.03
AGGGTAGTCC | 0.986 ± 0.03
GAGACGCTTT | 1.04 ± 0.049
TGCTCGGGGG | 1.15 ± 0.17

Sequence | switch fluorescence ratio
TTACTAATTT | 1.05 ± 0.036
TGGGGATAAT | 1.01 ± 0.028
GGGACCGGCA | 1.01 ± 0.029
GATCTTAGGT | 0.996 ± 0.041
TTCACGTTTT | 1.03 ± 0.087
TTTTTTCGAT | 0.995 ± 0.047
GGAAAGTAGG | 1.01 ± 0.046
ACCGGGGATT | 1 ± 0.018
TTTCGGTAAA | 1.026 ± 0.0039
AAGGGGCGAG | 0.9796 ± 0.0074
TTTTCAAGAG | 1.019 ± 0.01
GACGCGTGTG | 1.03 ± 0.042
GATTGGGGAT | 0.992 ± 0.02
CTGGTATGGG | 1.01 ± 0.03
ATGAGGGACT | 0.9594 ± 0.0036
AATTCAACAG | 1.01 ± 0.03
TACATGGGTT | 1.01 ± 0.0092
ATGGTGCCCC | 1.09 ± 0.049
CGGTAGTTGT | 0.981 ± 0.014
GGTTTGTAAC | 0.978 ± 0.029
TGACCCTTCT | 1.14 ± 0.05
CAAGGGGGTA | 0.995 ± 0.037

Sequence | switch fluorescence ratio
AGGGTGGGTG | 1.01 ± 0.024
CCTTGGATTG | 0.9851 ± 0.0018
GTAACGGGGC | 0.982 ± 0.049
ATTGAAAAAC | 1.03 ± 0.022
ACAAAATGTT | 1.02 ± 0.019
TTTATTCCGT | 0.999 ± 0.037
TTTGTGGGA | 0.997 ± 0.021
GATCGTACAG | 1.04 ± 0.018
GAGTTAATGT | 1.01 ± 0.043
AAGGGGGCAG | 0.994 ± 0.025
TCATAACTTT | 0.984 ± 0.017
ATCATGCTGT | 0.9976 ± 0.0017
AACAAGGGGA | 1.07 ± 0.067
ATTGGATGGG | 0.997 ± 0.057
TAAGGCGGTG | 1.04 ± 0.061
TTTAAACCCT | 1.03 ± 0.024
TTAAGCTGGC | 1.05 ± 0.056
ATGAAGGAGC | 0.9917 ± 0.0046
AGGGTCTCGT | 1.009 ± 0.0025
AAGCTAGGAG | 0.999 ± 0.041
AACATGCGCA | 0.9712 ± 0.0047
TGGCGTTGAT | 0.984 ± 0.019

Sequence | switch fluorescence ratio
CATCGGGGGT | 1.29 ± 0.67
CGGGTTTGGA | 0.998 ± 0.035
ACAGGGGATG | 1.08 ± 0.16
TGGCATTCGT | 0.9757 ± 0.0091
ACGACTGAAG | 1.014 ± 0.0015
TTAAGGTTAT | 1.02 ± 0.032
AATGCTGCGC | 1.03 ± 0.056
GGGGGAATCA | 0.9748 ± 0.0039
GTTCAAAGGT | 0.96 ± 0.032
TTATTGTACT | 1.008 ± 0.0073
CGTTCAGTTT | 0.9929 ± 0.0028
ACTAATGGCT | 1.01 ± 0.02
AATCTGGCTG | 0.991 ± 0.023
TGTTGGGATT | 0.998 ± 0.016
TCTATTTTTT | 1.01 ± 0.014
TAGTAAATGG | 0.999 ± 0.017
TCAATGGCTA | 1.02 ± 0.018
TGGGGATAGT | 0.968 ± 0.018
ATGAGTGTGT | 0.984 ± 0.015
